{
  "source": "paper doi:10.1101/2021.05.25.445586",
  "key": {"[1]": {"target": "mouse WT-RELN (Reelin), full-length (mouse) (UniProt Q60841)", "assay": "non-reducing SDS-PAGE with immunoblot"}, "[2]": {"target": "mouse WT-RELN (Reelin), full-length (mouse) (UniProt Q60841)", "assay": "non-reducing SDS-PAGE with immunoblot", "remark": "listed apart in the source"}},
  "note": "Like-named read-outs stand apart in the source and are kept apart here.",
  "data": [
    {"substance": "mouse WT-RELN (Reelin), full-length, Q60841 27-3461", "values": [
      {"measurement": "stoichiometry N", "setting": "[1]", "result": 2},
      {"measurement": "stoichiometry N", "setting": "[2]", "result": 2}
    ]}
  ]
}
